Test results published in PMC10066210, “The structural basis of the pH-homeostasis mediated by the Cl^−/HCO3^− exchanger, AE2” (Nature Communications, 2023).

Biological target: the molecule itself
Assay: cryo-EM structure; hAE2 in GDN, about 10 mg/mL; samples in KNO3 pH 7.25 to 6.55, Tris-HCl pH 8.32, NaCl, 50 mM NaHCO3, or DIDS with NaHCO3; C2 symmetry (one class C1)

B1: human anion exchanger 2 (AE2), residues 177-1241 (natural protein, UniProt P04920 177-1241, looked up)
chain: LPHQEATPRASKGAQAGTQVEEAEAEAVAVASGTAGGDDGGASGRPLPKAQPGHRSYNLQERRRIGSMTGAEQALLPRVPTDEIEAQTLATADLDLMKSHRFEDVPGVRRHLVRKNAKGSTQSGREGREPGPTPRARPRAPHKPHEVFVELNELLLDKNQEPQWRETARWIKFEEDVEEETERWGKPHVASLSFRSLLELRRTLAHGAVLLDLDQQTLPGVAHQVVEQMVISDQIKAEDRANVLRALLLKHSHPSDEKDFSFPRNISAGSLGSLLGHHHGQGAESDPHVTEPLMGGVPETRLEVERERELPPPAPPAGITRSKSKHELKLLEKIPENAEATVVLVGCVEFLSRPTMAFVRLREAVELDAVLEVPVPVRFLFLLLGPSSANMDYHEIGRSISTLMSDKQFHEAAYLADEREDLLTAINAFLDCSVVLPPSEVQGEELLRSVAHFQRQMLKKREEQGRLLPTGAGLEPKSAQDKALLQMVEAAGAAEDDPLRRTGRPFGGLIRDVRRRYPHYLSDFRDALDPQCLAAVIFIYFAALSPAITFGGLLGEKTQDLIGVSELIMSTALQGVVFCLLGAQPLLVIGFSGPLLVFEEAFFSFCSSNHLEYLVGRVWIGFWLVFLALLMVALEGSFLVRFVSRFTQEIFAFLISLIFIYETFYKLVKIFQEHPLHGCSASNSSEVDGGENMTWAGARPTLGPGNRSLAGQSGQGKPRGQPNTALLSLVLMAGTFFIAFFLRKFKNSRFFPGRIRRVIGDFGVPIAILIMVLVDYSIEDTYTQKLSVPSGFSVTAPEKRGWVINPLGEKSPFPVWMMVASLLPAILVFILIFMETQITTLIISKKERMLQKGSGFHLDLLLIVAMGGICALFGLPWLAAATVRSVTHANALTVMSKAVAPGDKPKIQEVKEQRVTGLLVALLVGLSIVIGDLLRQIPLAVLFGIFLYMGVTSLNGIQFYERLHLLLMPPKHHPDVTYVKKVRTLRMHLFTALQLLCLALLWAVMSTAASLAFPFILILTVPLRMVVLTRIFTDREMKCLDANEAEPVFDEREGVDEYNEMPMPV
notes: Anion exchanger 2 (AE2, SLC4A2), human; A TEV protease site lies between the N-terminal Flag-8xHis tags and AE2; Solubilised in LMNG/CHS/GDN and kept in GDN; Residues 1-319, 433-498, 643-672 and 856-893 are not modelled in the structures; also called hAE2; AE2^177-1241; source: Expi293 cells, transiently transfected, purified (anti-Flag beads, SEC in GDN)
- stoichiometry N: 2
